Patent publication US20090099029

T1: Bovine, dephosphorylated, Myelin Basic Protein (MBP), P02687
T1 chain: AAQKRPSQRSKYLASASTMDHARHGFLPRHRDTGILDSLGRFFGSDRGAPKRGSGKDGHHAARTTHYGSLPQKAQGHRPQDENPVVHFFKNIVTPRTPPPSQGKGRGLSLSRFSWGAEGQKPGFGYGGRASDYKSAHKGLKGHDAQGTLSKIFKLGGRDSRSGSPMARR


Target: T1, Bovine, dephosphorylated, Myelin Basic …

Row | Protein | MBP Kinase Activity
1 | ZAP70 (protein) MPDPAAHLPFFYGSISRAEAEEHLKLAGMADGLFLLRQCLRSLGGYVLSLVHDVRFHHFPIERQLNGTYAIAGGKAHCGPAELCEFYSRDPDGLPCNLRKPCNRPSGLEPQPGVFDCLRDAMVRDYVRQTWKLEGEALEQAIISQAPQVEKLIATTAHERMPWYHSSLTREEAERKLYSGAQTDGKFLLRPRKEQGTYALSLIYGKTVYHYLISQDKAGKYCIPEGTKFDTLWQLVEYLKLKADGLIYCLKEACPNSSASNASGAAAPTLPAHPSTLTHPQRRIDTLNSDGYTPEPARITSPDKPRPMPMDTSVYESPYSDPEELKDKKLFLKRDNLLIADIELGCGNFGSVRQGVYRMRKKQIDVAIKVLKQGTEKADTEEMMREAQIMHQLDNPYIVRLIGVCQAEALMLVMEMAGGGPLHKFLVGKREEIPVSNVAELLHQVSMGMKYLEEKNFVHRDLAARNVLLVNRHYAKISDFGLSKALGADDSYYTARSAGKWPLKWYAPECINFRKFSSRSDVWSYGVTMWEALSYGQKPYKKMKGPEVMAFIEQGKRMECPPECPPELYALMSDCWIYKWEDRPDFLTVEQRMRACYYSLASKVEGPPGSTQKAEAACA | Negative
2 | ADRBK1(GRK2) (protein) MADLEAVLADVSYLMAMEKSKATPAARASKKILLPEPSIRSVMQKYLEDRGEVTFEKIFSQKLGYLLFRDFCLNHLEEARPLVEFYEEIKKYEKLETEEERVARSREIFDSYIMKELLACSHPFSKSATEHVQGHLGKKQVPPDLFQPYIEEICQNLRGDVFQKFIESDKFTRFCQWKNVELNIHLTMNDFSVHRIIGRGGFGEVYGCRKADTGKMYAMKCLDKKRIKMKQGETLALNERIMLSLVSTGDCPFIVCMSYAFHTPDKLSFILDLMNGGDLHYHLSQHGVFSEADMRFYAAEIILGLEHMHNRFVVYRDLKPANILLDEHGHVRISDLGLACDFSKKKPHASVGTHGYMAPEVLQKGVAYDSSADWFSLGCMLFKLLRGHSPFRQHKTKDKHEIDRMTLTMAVELPDSFSPELRSLLEGLLQRDVNRRLGCLGRGAQEVKESPFFRSLDWQMVFLQKYPPPLIPPRGEVNAADAFDIGSFDEEDTKGIKLLDSDQELYRNFPLTISERWQQEVAETVFDTINAETDRLEARKKAKNKQLGHEEDYALGKDCIMHGYMSKMGNPFLTQWQRRYFYLFPNRLEWRGEGEAPQSLLTMEEIQSVEETQIKERKCLLLKIRGGKQFILQCDSDPELVQWKKELRDAYREAQQLVQRVPKMKNKPRSPVVELSKVPLVQRGSANGL | Negative
3 | AKT2 (protein) MNEVSVIKEGWLHKRGEYIKTWRPRYFLLKSDGSFIGYKERPEAPDQTLPPLNNFSVAECQLMKTERPRPNTFVIRCLQWTTVIERTFHVDSPDEREEWMRAIQMVANSLKQRAPGEDPMDYKCGSPSDSSTTEEMEVAVSKARAKVTMNDFDYLKLLGKGTFGKVILVREKATGRYYAMKILRKEVIIAKDEVAHTVTESRVLQNTRHPFLTALKYAFQTHDRLCFVMEYANGGELFFHLSRERVFTEERARFYGAEIVSALEYLHSRDVVYRDIKLENLMLDKDGHIKITDFGLCKEGISDGATMKTFCGTPEYLAPEVLEDNDYGRAVDWWGLGVVMYEMMCGRLPFYNQDHERLFELILMEEIRFPRTLSPEAKSLLAGLLKKDPKQRLGGGPSDAKEVMEHRFFLSINWQDVVQKKLLPPFKPQVTSEVDTRYFDDEFTAQSITITPPDRYDSLGLLELDQRTHFPQFSYSASIRE | Strong
4 | AKT3 (protein) MSDVTIVKEGWVQKRGEYIKNWRPRYFLLKTDGSFIGYKEKPQDVDLPYPLNNFSVAKCQLMKTERPKPNTFIIRCLQWTTVIERTFHVDTPEEREEWTEAIQAVADRLQRQEEERMNCSPTSQIDNIGEEEMDASTTHHKRKTMNDFDYLKLLGKGTFGKVILVREKASGKYYAMKILKKEVIIAKDEVAHTLTESRVLKNTRHPFLTSLKYSFQTKDRLCFVMEYVNGGELFFHLSRERVFSEDRTRFYGAEIVSALDYLHSGKIVYRDLKLENLMLDKDGHIKITDFGLCKEGITDAATMKTFCGTPEYLAPEVLEDNDYGRAVDWWGLGVVMYEMMCGRLPFYNQDHEKLFELILMEDIKFPRTLSSDAKSLLSGLLIKDPNKRLGGGPDDAKEIMRHSFFSGVNWQDVYDKKLVPPFKPQVTSETDTRYFDEEFTAQTITITPPEKYDEDGMDCMDNERRPHFPQFSYSASGRE | Strong
5 | STK6(AuroraA) (protein) MDRSKENCISGPVKATAPVGGPKRVLVTQQFPCQNPLPVNSGQAQRVLCPSNSSQRIPLQAQKLVSSHKPVQNQKQKQLQATSVPHPVSRPLNNTQKSKQPLPSAPENNPEEELASKQKNEESKKRQWALEDFEIGRPLGKGKFGNVYLAREKQSKFILALKVLFKAQLEKAGVEHQLRREVEIQSHLRHPNILRLYGYFHDATRVYLILEYAPLGTVYRELQKLSKFDEQRTATYITELANALSYCHSKRVIHRDIKPENLLLGSAGELKIADFGWSVHAPSSRRTTLCGTLDYLPPEMIEGRMHDEKVDLWSLGVLCYEFLVGKPPFEANTYQETYKRISRVEFTFPDFVTEGARDLISRLLKHNPSQRPMLREVLEHPWITANSSKPSNCQNKESASKQS | Weak
6 | EPHA2 (protein) HRRRKNQRARQSPEDVYFSKSEQLKPLKTYVDPHTYEDPNQAVLKFTTEIHPSCVTRQKVIGAGEFGEVYKGMLKTSSGKKEVPVAIKTLKAGYTEKQRVDFLGEAGIMGQFSHHNIIRLEGVISKYKPMMIITEYMENGALDKFLREKDGEFSVLQLVGMLRGIAAGMKYLANMNYVHRDLAARNILVNSNLVCKVSDFGLSRVLEDDPEATYTTSGGKIPIRWTAPEAISYRKFTSASDVWSFGIVMWEVMTYGERPYWELSNHEVMKAINDGFRLPTPMDCPSAIYQLMMQCWQQERARRPKFADIVSILDKLIRAPDSLKTLADFDPRVSIRLPSTSGSEGVPFRTVSEWLESIKMQQYTEHFMAAGYTAIEKVVQMTNDDIKRIGVRLPGHQKRIAYSLLGLKDQVNTVGIPI | Weak
7 | CHEK1 (protein) MAVPFVEDWDLVQTLGEGAYGEVQLAVNRVTEEAVAVKIVDMKRAVDCPENIKKEICINKMLNHENVVKFYGHRREGNIQYLFLEYCSGGELFDRIEPDIGMPEPDAQRFFHQLMAGVVYLHGIGITHRDIKPENLLLDERDNLKISDFGLATVFRYNNRERLLNKMCGTLPYVAPELLKRREFHAEPVDVWSCGIVLTAMLAGELPWDQPSDSCQEYSDWKEKKTYLNPWKKIDSAPLALLHKILVENPSARITIPDIKKDRWYNKPLKKGAKRPRVTSGGVSESPSGFSKHIQSNLDFSPVNSASSEENVKYSSSQPEPRTGLSLWDTSPSYIDKLVQGISFSQPTCPDHMLLNSQLLGTPGSSQNPWQRLVKRMTRFFTKLDADKSYQCLKETCEKLGYQWKKSCMNQVTISTTDRRNNKLIFKVNLLEMDDKILVDFRLSKGDGLEFKRHFLKIKGKLIDIVSSQKIWLPAT | Strong
8 | CSNK1D(CK1delta) (protein) MELRVGNRYRLGRKIGSGSFGDIYLGTDIAAGEEVAIKLECVKTKHPQLHIESKIYKMMQGGVGIPTIRWCGAEGDYNVMVMELLGPSLEDLFNFCSRKFSLKTVLLLADQMISRIEYIHSKNFIHRDVKPDNFLMGLGKKGNLVYIIDFGLAKKYRDARTHQHIPYRENKNLTGTARYASINTHLGIEQSRRDDLESLGYVLMYFNLGSLPWQGLKAATKRQKYERISEKKMSTPIEVLCKGYPSEFATYLNFCRSLRFDDKPDYSYLRQLFRNLFHRQGFSYDYVFDWNMLKFGASRAADDAERERRDREERLRHSRNPATRGLPSTASGRLRGTQEVAPPTPLTPTSHTANTSPRPVSGMERERKVSMRLHRGAPVNISSSDLTGRQDTSRMSTSQNSIPFEHHGK | Negative
9 | CSNK1E(CK1eps) (protein) MELRVGNKYRLGRKIGSGSFGDIYLGANIASGEEVAIKLECVKTKHPQLHIESKFYKMMQGGVGIPSIKWCGAEGDYNVMVMELLGPSLEDLFNFCSRKFSLKTVLLLADQMISRIEYIHSKNFIHRDVKPDNFLMGLGKKGNLVYIIDFGLAKKYRDARTHQHIPYRENKNLTGTARYASINTHLGIEQSRRDDLESLGYVLMYFNLGSLPWQGLKAATKRQKYERISEKKMSTPIEVLCKGYPSEFSTYLNFCRSLRFDDKPDYSYLRQLFRNLFHRQGFSYDYVFDWNMLKFGAARNPEDVDRERREHEREERMGQLRGSATRALPPGPPTGATANRLRSAAEPVASTPASRIQPAGNTSPRAISRVDRERKVSMRLHRGAPANVSSSDLTGRQEVSRIPASQTSVPFDHLGK | Negative
10 | EPHA3 (protein) RFCGYKSKHGADEKRLHFGNGHLKLPGLRTYVDPHTYEDPTQAVHEFAKELDATNISIDKVVGAGEFGEVCSGRLKLPSKKEISVAIKTLKVGYTEKQRRDFLGEASIMGQFDHPNIIRLEGVVTKSKPVMIVTEYMENGSLDSFLRKHDAQFTVIQLVGMLRGIASGMKYLSDMGYVHRDLAARNILINSNLVCKVSDFGLSRVLEDDPEAAYTTRGGKIPIRWTSPEAIAYRKFTSASDVWSYGIVLWEVMSYGERPYWEMSNQDVIKAVDEGYRLPPPMDCPAALYQLMLDCWQKDRNNRPKFEQIVSILDKLIRNPGSLKIITSAAARPSNLLLDQSNVDITTFRTTGDWLNGVWTAHCKEIFTGVEYSSCDTIAKISTDDMKKVGVTVVGPQKKIISSIKALETQSKNGPVPV | Strong
11 | CSNK2A1(CK2alpha1) (protein) MSGPVPSRARVYTDVNTHRPREYWDYESHVVEWGNQDDYQLVRKLGRGKYSEVFEAINITNNEKVVVKILKPVKKKKIKREIKILENLRGGPNIITLADIVKDPVSRTPALVFEHVNNTDFKQLYQTLTDYDIRFYMYEILKALDYCHSMGIMHRDVKPHNVMIDHEHRKLRLIDWGLAEFYHPGQEYNVRVASRYFKGPELLVDYQMYDYSLDMWSLGCMLASMIFRKEPFFHGHDNYDQLVRIAKVLGTEDLYDYIDKYNIELDPRFNDILGRHSRKRWERFVHSENQHLVSPEALDFLDKLLRYDHQSRLTAREAMEHPYFYTVVKDQARMGSSSMPGGSTPVSSANMMSGISSVPTPSPLGPLAGSPVIAAANPLGMPVPAAAGAQQ | Strong
12 | CSNK2A2 (protein) MPGPAAGSRARVYAEVNSLRSREYWDYEAHVPSWGNQDDYQLVRKLGRGKYSEVFEAINITNNERVVVKILKPVKKKKIKREVKILENLRGGTNIIKLIDTVKDPVSKTPALVFEYINNTDFKQLYQILTDFDIRFYMYELLKALDYCHSKGIMHRDVKPHNVMIDHQQKKLRLIDWGLAEFYHPAQEYNVRVASRYFKGPELLVDYQMYDYSLDMWSLGCMLASMIFRREPFFHGQDNYDQLVRIAKVLGTEELYGYLKKYHIDLDPHFNDILGQHSRKRWENFIHSENRHLVSPEALDLLDKLLRYDHQQRLTAKEAMEHPYFYPVVKEQSQPCADNAVLSSGLTAAR | Negative
